This note sets out measurements from paper PMC8531335, “Point mutations in Candida glabrata 3-hydroxy-3-methylglutaryl-coenzyme A reductase (CgHMGR) decrease enzymatic activity and substrate/inhibitor affinity” (Scientific Reports, 2021).

This series deals with CC(C)(COP(=O)(O)OP(=O)(O)OC[C@H]1O[C@@H](n2cnc3c(N)ncnc32)[C@H](O)[C@@H]1OP(=O)(O)O)[C@@H](O)C(=O)NCCC(=O)NCCSC(=O)C[C@@](C)(O)CC(=O)O. As to the kind of experiment: purified protein. It is filed as biochemical, Nakaseomyces glabratus. Conditions: NADPH co-substrate, Tris-HCl; HMG-CoA 1-64 µM; MBP fusion.
As to “CgHMGR (Rec-MBP-CgHMGR, catalytic domain of Candida glabrata HMGR) (Nakaseomyces glabratus CBS 138; D805A)”, the Km is 11.84 µM.
Consider “CgHMGR (Rec-MBP-CgHMGR, catalytic domain of Candida glabrata HMGR) (Nakaseomyces glabratus CBS 138; E680Q)”, for which the Km was found to be 8.31 µM.
Consider “CgHMGR (Rec-MBP-CgHMGR, catalytic domain of Candida glabrata HMGR) (Nakaseomyces glabratus CBS 138; E711Q)”, for which the Km was found to be 18 µM.
